Target: VEGF mitogenic receptors
Assay: cell-based or functional assay

half-maximal activity, HUVEC mitogenesis ([3H]thymidine incorporation): 17 to 19 ng/mL
B1: recombinant human VEGF145, P15692 207-395 (ligand)
chain: APMAEGGGQNHHEVVKFMDVYQRSYCHPIETLVDIFQEYPDEIEYIFKPSCVPLMRCGGCCNDEGLECVPTEESNITMQIMRIKPHQGQHIGEMSFLQHNKCECRPKKDRARQEKKSVRGKGKGQKRKRKKSRYKSWSVCDKPRR
